# Measured values from article PMC6262623, “The Intermolecular Interaction of Ephexin4 Leads to Autoinhibition by Impeding Binding of RhoG” (Cells, 2018).
# Numbering of substitutions follows the chain as printed.
# B1: GFP-RhoG (natural protein)
# chain: not shown
# Assays:
# [1] = target: T1, FLAG-tagged wild-type Ephexin4 (murine, UniProt Q3U5C8 1-713); assay: cell-based or functional assay
# T1 sequence (looked up): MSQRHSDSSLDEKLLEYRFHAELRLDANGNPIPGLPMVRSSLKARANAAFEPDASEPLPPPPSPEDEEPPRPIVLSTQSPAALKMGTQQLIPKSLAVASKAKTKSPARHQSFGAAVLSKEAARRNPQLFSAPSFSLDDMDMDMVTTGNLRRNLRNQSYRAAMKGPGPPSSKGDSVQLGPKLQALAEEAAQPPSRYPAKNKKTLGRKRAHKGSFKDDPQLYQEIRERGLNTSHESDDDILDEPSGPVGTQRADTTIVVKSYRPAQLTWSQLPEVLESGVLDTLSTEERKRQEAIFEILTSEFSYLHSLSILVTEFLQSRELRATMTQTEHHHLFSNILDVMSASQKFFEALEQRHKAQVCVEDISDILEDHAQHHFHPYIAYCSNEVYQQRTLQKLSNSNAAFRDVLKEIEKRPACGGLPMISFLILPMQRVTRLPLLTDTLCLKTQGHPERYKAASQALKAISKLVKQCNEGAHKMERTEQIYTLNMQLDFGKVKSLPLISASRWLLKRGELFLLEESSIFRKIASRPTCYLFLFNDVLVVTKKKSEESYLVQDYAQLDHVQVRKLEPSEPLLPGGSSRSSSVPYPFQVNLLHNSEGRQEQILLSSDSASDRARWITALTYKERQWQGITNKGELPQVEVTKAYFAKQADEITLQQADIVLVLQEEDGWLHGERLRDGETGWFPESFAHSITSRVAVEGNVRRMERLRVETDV
# [2] = target: T2, FLAG-tagged Ephexin4^E295A (murine, UniProt Q3U5C8 1-713, E295A); assay: cell-based or functional assay
# T2 sequence (looked up): T1 sequence (looked up) with E295A
binder,measurement,setting,value
B1,"level of active (GTP-bound) RhoG precipitated by GST-Elmo2^N-term from 293T cells expressing wild-type Ephexin4, against control cells (Figure 3a,b)",[1],1.6 fold
same,"level of active endogenous RhoG (293T) precipitated by GST-Elmo2^N-term from cells expressing wild-type Ephexin4 (Figure 3c,d)",[1],1.6 fold
same,"level of active (GTP-bound) RhoG precipitated by GST-Elmo2^N-term from 293T cells expressing Ephexin4^E295A, against control cells (Figure 3a,b)",[2],2.9 fold
same,"level of active endogenous RhoG (293T) precipitated by GST-Elmo2^N-term from cells expressing Ephexin4^E295A (Figure 3c,d)",[2],2.6 fold
